# Reference: paper PMC8642242
# Target: SARS-CoV-2 stabilized S trimer (HexaPro) (SARS-CoV-2)
row,Substance,IC50 of neutralization of SARS-CoV-2 (IL1/2020) pseudovirus (pSV assay) [ng ml^−1]
1,WRAIR-2123 (human IgG1) (antibody),4
2,WRAIR-2165 (human IgG1) (antibody),10
3,WRAIR-2173 (human IgG1) (antibody),4
